# From the supplement of paper PMC9112550, “Optimization of the antimicrobial peptide Bac7 by deep mutational scanning” (BMC Biology, 2022)
# Test system: Escherichia coli TOP10
# Assay: shrunken log2 fold change of peptide-encoding DNA abundance (4.5 h post-induction vs induction); higher = less antimicrobial activity (less host growth inhibition)
# Settings: time post-induction: 4.5 h; library: site-saturation at positions 5, 18, 19, 20
# 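Note: peptides expressed intracellularly from a pBAD plasmid library in pooled LB shake-flask culture, induced with 0.3% L-arabinose, DNA abundance read by NGS, three biological replicates, DESeq2 with apeglm shrinkage.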
row,Sequence,shrunken log2 fold change
1,RRIRTRPPRLPRPRPRPRMSPRP,-0.259
2,RRIRRRPPRLPRPRPRPHQSPRP,0.128
3,RRIRHRPPRLPRPRPRPKQNPRP,0.139
4,RRIRPRPPRLPRPRPRPILEPRP,-0.132
5,RRIRYRPPRLPRPRPRPPVVPRP,0.00632
6,RRIRMRPPRLPRPRPRPNWEPRP,0.0757
7,RRIRKRPPRLPRPRPRPPSVPRP,0.282
8,RRIRNRPPRLPRPRPRPWCPPRP,-0.752
9,RRIRCRPPRLPRPRPRPDLPPRP,-0.265
10,RRIRDRPPRLPRPRPRPTTIPRP,-0.121
11,RRIRDRPPRLPRPRPRPNHAPRP,-0.31
12,RRIRWRPPRLPRPRPRPGRQPRP,-0.00663
13,RRIRQRPPRLPRPRPRPKSVPRP,-0.0026
14,RRIRSRPPRLPRPRPRPIAQPRP,-0.0267
15,RRIRCRPPRLPRPRPRPVFMPRP,-0.359
16,RRIRLRPPRLPRPRPRPITIPRP,0.0213
17,RRIRRRPPRLPRPRPRPKADPRP,0.198
18,RRIRHRPPRLPRPRPRPTQDPRP,1.87
19,RRIRYRPPRLPRPRPRPRDCPRP,-0.137
20,RRIRPRPPRLPRPRPRPEGRPRP,0.545
21,RRIRARPPRLPRPRPRPICPPRP,0.0597
22,RRIRVRPPRLPRPRPRPARFPRP,0.16
23,RRIRSRPPRLPRPRPRPDGYPRP,-0.164
24,RRIRKRPPRLPRPRPRPPICPRP,0.684
25,RRIRLRPPRLPRPRPRPFGPPRP,0.0996

row,Sequence,shrunken log2 fold change
1,RRIRERPPRLPRPRPRPWMMPRP,-0.139
2,RRIRFRPPRLPRPRPRPWGAPRP,0.0596
3,RRIRCRPPRLPRPRPRPASMPRP,-0.412
4,RRIRMRPPRLPRPRPRPGHGPRP,0.32
5,RRIRFRPPRLPRPRPRPLNVPRP,-0.345
6,RRIRRRPPRLPRPRPRPCRPPRP,0.0965
7,RRIRLRPPRLPRPRPRPTYLPRP,-0.0138
8,RRIRARPPRLPRPRPRPIKEPRP,-0.0357
9,RRIRIRPPRLPRPRPRPCVKPRP,-0.828
10,RRIRTRPPRLPRPRPRPVMAPRP,-0.0918
11,RRIRSRPPRLPRPRPRPEKPPRP,0.014
12,RRIRDRPPRLPRPRPRPWWIPRP,-0.0075
13,RRIRMRPPRLPRPRPRPPFRPRP,0.693
14,RRIRSRPPRLPRPRPRPHALPRP,0.0303
15,RRIRNRPPRLPRPRPRPYNKPRP,-0.963
16,RRIRQRPPRLPRPRPRPAIPPRP,0.0602
17,RRIRNRPPRLPRPRPRPPCDPRP,-0.0173
18,RRIRIRPPRLPRPRPRPGAHPRP,-0.0753
19,RRIRQRPPRLPRPRPRPPEQPRP,0.00242
20,RRIRVRPPRLPRPRPRPMYYPRP,-0.706
21,RRIRRRPPRLPRPRPRPMSLPRP,-0.0564
22,RRIRMRPPRLPRPRPRPVRKPRP,0.136
23,RRIRPRPPRLPRPRPRPNNWPRP,-0.173
24,RRIRVRPPRLPRPRPRPWDDPRP,-0.27
25,RRIRRRPPRLPRPRPRPAISPRP,-0.0296

row,Sequence,shrunken log2 fold change
1,RRIRKRPPRLPRPRPRPWTTPRP,-0.0228
2,RRIRFRPPRLPRPRPRPWFQPRP,-0.285
3,RRIRIRPPRLPRPRPRPVETPRP,0.156
4,RRIRKRPPRLPRPRPRPVYIPRP,-0.564
5,RRIRARPPRLPRPRPRPYIWPRP,-0.543
6,RRIRDRPPRLPRPRPRPNVSPRP,-0.00783
7,RRIRCRPPRLPRPRPRPPYSPRP,-0.798
8,RRIRQRPPRLPRPRPRPWQWPRP,-0.133
9,RRIRDRPPRLPRPRPRPHLPPRP,-0.0459
10,RRIRARPPRLPRPRPRPDIYPRP,0.115
11,RRIRWRPPRLPRPRPRPNCIPRP,-0.0807
12,RRIRERPPRLPRPRPRPTVLPRP,-0.0263
13,RRIRMRPPRLPRPRPRPFINPRP,-0.278
14,RRIRLRPPRLPRPRPRPWIHPRP,-0.487
15,RRIRLRPPRLPRPRPRPILTPRP,-0.281
16,RRIRLRPPRLPRPRPRPCMSPRP,0.0623
17,RRIRIRPPRLPRPRPRPIKWPRP,-0.118
18,RRIRPRPPRLPRPRPRPCDLPRP,-0.428
19,RRIRYRPPRLPRPRPRPGLHPRP,-0.265
20,RRIRWRPPRLPRPRPRPRPDPRP,0.518
21,RRIRLRPPRLPRPRPRPFEMPRP,-0.00193
22,RRIRQRPPRLPRPRPRPGDGPRP,0.415
23,RRIRDRPPRLPRPRPRPDPCPRP,-0.0187
24,RRIRRRPPRLPRPRPRPMRPPRP,0.66
25,RRIRNRPPRLPRPRPRPHVWPRP,0.0415

row,Sequence,shrunken log2 fold change
1,RRIRWRPPRLPRPRPRPSIFPRP,-0.396
2,RRIRGRPPRLPRPRPRPLTKPRP,0.664
3,RRIRQRPPRLPRPRPRPPHCPRP,0.0459
4,RRIRKRPPRLPRPRPRPAIGPRP,1.04
5,RRIRNRPPRLPRPRPRPLSLPRP,-0.291
6,RRIRHRPPRLPRPRPRPYQFPRP,-0.0129
7,RRIRPRPPRLPRPRPRPMSTPRP,-0.229
8,RRIRDRPPRLPRPRPRPRCCPRP,0.18
9,RRIRMRPPRLPRPRPRPLAWPRP,0.219
10,RRIRSRPPRLPRPRPRPSIGPRP,0.347
11,RRIRNRPPRLPRPRPRPMIKPRP,-0.456
12,RRIRKRPPRLPRPRPRPSHIPRP,0.156
13,RRIRVRPPRLPRPRPRPMTPPRP,0.452
14,RRIRWRPPRLPRPRPRPIDGPRP,0.19
15,RRIRQRPPRLPRPRPRPLRDPRP,0.082
16,RRIRYRPPRLPRPRPRPNYEPRP,-0.399
17,RRIRSRPPRLPRPRPRPRKQPRP,0.248
18,RRIRNRPPRLPRPRPRPYCWPRP,-0.425
19,RRIRWRPPRLPRPRPRPMTFPRP,-0.108
20,RRIRRRPPRLPRPRPRPQCWPRP,0.557
21,RRIRSRPPRLPRPRPRPVFQPRP,-0.302
22,RRIRFRPPRLPRPRPRPIRCPRP,0.0461
23,RRIRDRPPRLPRPRPRPSHAPRP,0.0738
24,RRIRPRPPRLPRPRPRPEGHPRP,-0.16
25,RRIRMRPPRLPRPRPRPKDVPRP,-0.000921

row,Sequence,shrunken log2 fold change
1,RRIRDRPPRLPRPRPRPKTPPRP,-0.00153
2,RRIRPRPPRLPRPRPRPSCAPRP,0.0332
3,RRIRARPPRLPRPRPRPAWWPRP,0.895
4,RRIRDRPPRLPRPRPRPYATPRP,0.0348
5,RRIRPRPPRLPRPRPRPYLRPRP,0.0823
6,RRIRQRPPRLPRPRPRPSVFPRP,-0.143
7,RRIRRRPPRLPRPRPRPEGRPRP,0.89
8,RRIRKRPPRLPRPRPRPVAVPRP,0.138
9,RRIRKRPPRLPRPRPRPHFVPRP,0.347
10,RRIRVRPPRLPRPRPRPEPSPRP,0.0778
11,RRIRIRPPRLPRPRPRPISWPRP,-0.392
12,RRIRGRPPRLPRPRPRPGSFPRP,0.286
13,RRIRVRPPRLPRPRPRPVDMPRP,0.00782
14,RRIRERPPRLPRPRPRPFYSPRP,-0.795
15,RRIRSRPPRLPRPRPRPKQVPRP,0.0497
16,RRIRKRPPRLPRPRPRPKKVPRP,-0.0126
17,RRIRVRPPRLPRPRPRPGEWPRP,-0.00804
18,RRIRFRPPRLPRPRPRPRNYPRP,-0.236
19,RRIRLRPPRLPRPRPRPRHMPRP,-0.287
20,RRIRTRPPRLPRPRPRPGWPPRP,0.576
21,RRIRWRPPRLPRPRPRPSMIPRP,-0.12
22,RRIRHRPPRLPRPRPRPKRFPRP,0.0543
23,RRIRWRPPRLPRPRPRPLHPPRP,0.597
24,RRIRPRPPRLPRPRPRPAFEPRP,0.139
25,RRIRPRPPRLPRPRPRPIDPPRP,-0.172

row,Sequence,shrunken log2 fold change
1,RRIRARPPRLPRPRPRPNYAPRP,-0.0399
2,RRIRHRPPRLPRPRPRPPSWPRP,0.393
3,RRIRWRPPRLPRPRPRPALFPRP,0.496
4,RRIRYRPPRLPRPRPRPSVNPRP,-0.177
5,RRIRRRPPRLPRPRPRPWCKPRP,-0.0285
6,RRIRLRPPRLPRPRPRPYMMPRP,-0.594
7,RRIRSRPPRLPRPRPRPYMSPRP,-0.355
8,RRIRCRPPRLPRPRPRPTMVPRP,-0.33
9,RRIRDRPPRLPRPRPRPARSPRP,0.0403
10,RRIRARPPRLPRPRPRPAYGPRP,0.0552
11,RRIRHRPPRLPRPRPRPQDWPRP,0.0899
12,RRIRGRPPRLPRPRPRPYCMPRP,-0.148
13,RRIRRRPPRLPRPRPRPFKLPRP,-0.0153
14,RRIRNRPPRLPRPRPRPMIFPRP,-0.287
15,RRIRLRPPRLPRPRPRPFIGPRP,-0.305
16,RRIRSRPPRLPRPRPRPATVPRP,-0.15
17,RRIRGRPPRLPRPRPRPEQKPRP,0.105
18,RRIRYRPPRLPRPRPRPIVQPRP,-0.121
19,RRIRIRPPRLPRPRPRPCVTPRP,-0.22
20,RRIRSRPPRLPRPRPRPGHWPRP,0.286
21,RRIRWRPPRLPRPRPRPRIWPRP,-0.0288
22,RRIRRRPPRLPRPRPRPNKNPRP,0.153
23,RRIRYRPPRLPRPRPRPFHEPRP,-0.245
24,RRIRSRPPRLPRPRPRPVYPPRP,-0.11
25,RRIRNRPPRLPRPRPRPPSRPRP,0.228
